# Laboratory results published in patent US20170296650A1 (Novartis, published 2017).
# B1: 8L13 (antibody, V domains shown)
# VH: QVQLLESGGGVVQPGRSLRLSCAASGFTFSNYGMHWVRQAPGKGLEWVAVIWNDGSKKYYAESVKGRFTISRDNSKNTVYLQMNSLRAEDTAVYYCARDEGVQMVFAMPDYGMDVWGQGTTVTVSS
# VL: SYELTQPPSVSVSPGQTASITCSGDKLGDKFACWYQQRPGQSPILVIYQDSKRPSGIPERFSGSNSGNTATLTIRGTQAMDEADYYCQAWDSSTAHYVFGTGTKVTVL
# notes: human IgG
# B2: 7B13 (antibody, V domains shown)
# VH: QVQLVESGGGVVQPGGSLRLSCAASGFSFSNYGMHWVRQAPGKGLEWVALIPSDGNYQYYTDSVKGRFTVSRDNSRNTLYLQMKSLRAEDTARYHCAHLGGGLFDFWGQGTLVTVSS
# VL: QSALNQPRSVSGSPGQSVSISCTGSSSDVGGYEFVSWYQHHPGKAPKLIIYDVDKRPSGVPDRFSGSRSGDTASLTISGLQAEDEADYYCYSSADTWVFGGGTKLTVL
# notes: human IgG
# B3: 11B12 (antibody, V domains shown)
# VH: QMQLVQSGPQVKKPGTSVKVSCKASGFTFTSSAMQWVRQARGQRPEWIGWIVLGSGNTNYAQKFQERVTLTRDMSTATAYMELSSLRSEDTAVYYCAADRGRGGYNVYTYWGQGTLVAVSS
# VL: EIVMTQSPGTLSLSPGERATLSCRASQTISNTYVAWYQQKPGQAPRLLIYGASSRATGIPDRFSGSGSGTDFTLTIRRLEPEDFAVYYCQQNGQSPWTFGQGTNVEIK
# B4: 13H11 (antibody, V domains shown)
# VH: QVQLVQSGAEVKKPGASVKVSCKASGYTFTNYYIHWVRQAPGQGLEWMGIIHPSSGGTSYAQKFQGRVTMTRDTSTSTVSMDLSSLRSEDTAVYYCGRAFRILGLSDVFVNDWGQGTVVTVSS
# VL: DIQMTQSPSSLSASVGDRVTITCRASQGINNYLAWYQQKPGKVPKLLIYAASTLQSGVPSRFSGSGSGTAFTLTILSLQPEDVATYYCQKYNSAPFTFGPGTKVDIK
# B5: 4N10 (antibody, V domains shown)
# VH: QVQLVQSGAEVKKPGSSVRVSCKASGGTFSSYVIIWVRQAPGQGLEWMGGVIPIFDTVNYAQKFQGRVTITADESTSTAYMELSSLKSEDTAVYYCARGILAYCGGDCYNTPYGMDVWGQGTTVTVSS
# VL: DIQMTQSPSILSASVGDRVTITCRASQSISSWLAWYQQKPGKAPKLLIYKASSLEIGVPSRISGSGSGTEFTLTISSLQPDDFATYYCQQYNSSWTFGQGTKVEIK
# notes: human IgG; also called 4N10-biotin
# B6: 3G16 (antibody, V domains shown)
# VH: QSALTQPASVSGSPGESITISCTGTISDVGAYNSVSWYQQHSGTAPELIIYDVTNRPAGVSSRFSGSKSGNTASLTISWLQSEDEAEYYCSSYTTSDTYVFGSGTQVTVL
# V domain: RAQLVQSAAEMKNPGASVKVSCEASGYTFTGYYVHWMRQAPGQGLEWMGWINPMTGATKSPQKFQGRVTMTRDTSTTATHIELTRLRSDDSAVFFCARGGPTSTRITGKRHFDLWGRGTLITVAS
# notes: human IgG; also called 3G16-biotin
# B7: 10F7 (antibody, V domains shown)
# VH: EVQLVESGGGLVQPGRSLRLSCTASGFTFGDYAMSWFRQAPGKGLEWVGFIRSKAYGGTTEYAASVKGRFTISRDDSKSIAYLQMNSLKTEDTAVYYCTRASSLLWLLNPQPNFDYWGQGTLVTVSS
# VL: SYVLTQPPSVSVAPGQTARITCGGNNIGSNNVHWYQQKPGQAPVLVVYDDSDRPSGIPERFSGSNSGNTATLTISRVEAGDEADYYCQVWDSSSDHPVFGGGTKLTVL
# notes: human IgG; also called 10F7-biotin
# B8: 10P3 (antibody, V domains shown)
# VH: EVQLVESGGGLVRPGGSLRLSCAASGFTFHNYRMNWVRQAPGKGLEWVANIKQDGSEKSYVDSVRGRFTTSRDNSKNSLYLQINSLRAEDTAVYYCARGEGYTYGVVYSYSAMDVWGQGTTVIVSS
# VL: SYELTQPPSVSVSPGQTARITCSGNVLPNQYASWYQQKPGQAPVLVIYKDTERPSGIPGRFSGSSSGTTVTLTISGVQAEDEADYYCQSADSSGADYVFGTGTKVTVL
# notes: human IgG
# What was measured:
# [1] = target: T1, hCMV UL130 + UL131A (HEK293T co-transfectant) (hCMV, UniProt P16772 1-214); experiment: cell-based or functional assay
# [2] = target: T1, hCMV UL130 + UL131A (HEK293T …); experiment: cell-based or functional assay; remark: listed apart in the source
# [3] = target: T2, hCMV gH + gL + UL128 + UL130 + UL131A (5-member complex; HEK293T co-transfectant) (hCMV, UniProt P12824 24-743; P16832 31-278; P16837 1-171; P16772 1-214); experiment: cell competition; competitor 10F7-biotin
# T2 construct: whole, on cells; in the functional rows it stands for the complex on virions or transduced cells of the strain or isolate named in the readout; also called gH/gL/UL128-131A complex; pentameric complex
# [4] = target: T2, hCMV gH + gL + UL128 + UL130 + UL131A …; experiment: cell competition; competitor 1F11-biotin
# [5] = target: T3, hCMV UL128 + UL130 + UL131A (HEK293T co-transfectant) (hCMV, UniProt P16837 1-171; P16772 1-214); experiment: cell-based or functional assay
# [6] = target: T3, hCMV UL128 + UL130 + UL131A (HEK293T …); experiment: cell-based or functional assay; remark: listed apart in the source
# [7] = target: T2, hCMV gH + gL + UL128 + UL130 + UL131A …; experiment: cell competition; competitor 6G4-biotin
# [8] = target: T2, hCMV gH + gL + UL128 + UL130 + UL131A …; experiment: cell competition; competitor 9I6-biotin
# [9] = target: T2, hCMV gH + gL + UL128 + UL130 + UL131A …; experiment: cell competition; competitor 2C12-biotin
# [10] = target: T2, hCMV gH + gL + UL128 + UL130 + UL131A …; experiment: cell competition; competitor 8C15-biotin
# [11] = target: T2, hCMV gH + gL + UL128 + UL130 + UL131A …; experiment: cell competition; competitor 8I21-biotin
# [12] = target: T2, hCMV gH + gL + UL128 + UL130 + UL131A …; experiment: cell competition; competitor 8J16-biotin
# [13] = target: T4, hCMV gH (HEK293T transfectant) (hCMV, UniProt P12824 24-743); experiment: cell-based or functional assay
# [14] = target: T4, hCMV gH (HEK293T transfectant); experiment: cell-based or functional assay; remark: listed apart in the source
# [15] = target: T2, hCMV gH + gL + UL128 + UL130 + UL131A …; experiment: cell competition; competitor 2F4-biotin
# [16] = target: T2, hCMV gH + gL + UL128 + UL130 + UL131A …; experiment: cell competition; competitor 5A2-biotin
# [17] = target: T2, hCMV gH + gL + UL128 + UL130 + UL131A …; experiment: cell competition; competitor 15D8-biotin
# [18] = target: T2, hCMV gH + gL + UL128 + UL130 + UL131A …; experiment: cell competition; competitor 4I22-biotin
# [19] = target: T2, hCMV gH + gL + UL128 + UL130 + UL131A …; experiment: cell competition; competitor 4N10-biotin
# T3 sequence (P16837 whole entry, chain 1 of 2): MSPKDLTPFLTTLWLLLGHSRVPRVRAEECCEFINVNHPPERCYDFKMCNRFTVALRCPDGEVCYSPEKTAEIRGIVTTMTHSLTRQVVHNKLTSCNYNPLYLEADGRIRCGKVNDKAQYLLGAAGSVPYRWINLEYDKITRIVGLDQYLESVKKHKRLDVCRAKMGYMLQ
# T3 sequence (P16772 whole entry, chain 2 of 2): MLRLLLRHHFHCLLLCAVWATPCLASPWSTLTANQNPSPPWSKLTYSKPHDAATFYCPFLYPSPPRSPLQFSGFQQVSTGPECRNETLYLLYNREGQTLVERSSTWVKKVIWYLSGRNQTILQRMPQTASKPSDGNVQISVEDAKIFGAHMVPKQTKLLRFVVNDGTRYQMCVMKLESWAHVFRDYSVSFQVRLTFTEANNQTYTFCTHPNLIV
# T1 sequence (P16772 whole entry): as the sequence (P16772 whole entry, chain 2 of 2) above
Binder,"50% neutralization VR1814, ARPE [1] [µg/mL]","50% neutralization VR1814, MRC-9 [1] [µg/mL]","90% neutralization VR1814, ARPE [2] [µg/mL]","90% neutralization VR1814, MRC-9 [2] [µg/mL]",Inhibition of binding (%) [3] [%],Inhibition of binding (%) [4] [%],Inhibition of binding (%) [7] [%],Inhibition of binding (%) [9] [%],Inhibition of binding (%) [11] [%],"50% neutralization VR1814, ARPE [13] [µg/mL]","50% neutralization VR1814, MRC-9 [13] [µg/mL]","90% neutralization VR1814, ARPE [14] [µg/mL]","90% neutralization VR1814, MRC-9 [14] [µg/mL]",Inhibition of binding (%) [15] [%],Inhibition of binding (%) [17] [%],Inhibition of binding (%) [18] [%],further results
B1,< 0.01,> 2,0.001,> 10,100,100,,,,,,,,,,,
B2,,,,,,,100,100,0,,,,,,,,"50% neutralization VR1814, ARPE [5]: < 0.001 µg/mL; 50% neutralization VR1814, MRC-9 [5]: > 2 µg/mL; 90% neutralization VR1814, ARPE [6]: 0.003 µg/mL; 90% neutralization VR1814, MRC-9 [6]: > 10 µg/mL; Inhibition of binding (%) [8]: 100%; Inhibition of binding (%) [10]: 100%; Inhibition of binding (%) [12]: 100%"
B3,,,,,,,,,,≤ 2,≤ 2,1.2,3.5,,,,
B4,,,,,,,,,,< 0.01,≤ 2,0.4,1.12,,,,
B5,< 0.001,≤ 2,0.02,> 10,0,0,0,0,90,,,,,0,0,0,Inhibition of binding (%) [16]: 100%; Inhibition of binding (%) [19]: 100%
B6,,,,,,,0,0,0,≤ 2,≤ 2,0.3,1,,,,
B7,< 0.01,≤ 2,0.002,> 10,100,100,0,0,0,,,,,100,0,100,Inhibition of binding (%) [16]: 0%; Inhibition of binding (%) [19]: 0%
B8,< 0.001,> 2,0.0025,> 10,,0,0,0,0,,,,,0,0,0,
